The target in one assay is canine TGFβ1 (canine, UniProt P54831 279-390, limits assumed). The assay can be described thus: SPR, TGFβ on chip. An excerpt: (§1) To avoid affinity differences associated with differential surface preparation that can occur when immobilizing antibodies to surfaces, TGFβ1, TGFβ2, and TGFβ3 (R&D Systems) were directly conjugated to the individual surface. Immobilization was obtained by amine coupling […] using N-hydroxysuccinimide (NHS)/1-Ethyl-3-(3-dimethylaminopropyl) carbodiimide (EDC) chemistry. Chips were quenched with ethanolamine and the affinity with which all candidate mAbs bound to the immobilized TGFβ was evaluated. All curves were fit to a 1:1 model. Affinities <10⁻¹¹ are below the lower limit of quantitation of detection for the instrument.

The target in assay [1] is T1, canine TGFβ2 (canine, UniProt A0A8I3PZZ6 331-442).
T1 sequence: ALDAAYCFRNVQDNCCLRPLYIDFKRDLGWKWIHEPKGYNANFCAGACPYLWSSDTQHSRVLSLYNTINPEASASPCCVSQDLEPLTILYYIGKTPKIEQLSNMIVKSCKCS
The assay can be described thus: SPR, TGFβ on chip.
Source text: as §1
A general note: In SPR one partner is held on a chip, and binding of the other changes the refractive index at the surface.

For assay [2], the target named is T2, canine TGFβ3 (canine, UniProt A0A8I3S1P1 346-457).
T2 sequence: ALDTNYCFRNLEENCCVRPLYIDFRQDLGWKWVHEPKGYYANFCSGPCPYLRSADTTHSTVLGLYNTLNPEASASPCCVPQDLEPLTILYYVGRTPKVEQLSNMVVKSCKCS
Put plainly: SPR, TGFβ on chip.
Source text: as §1

The target in assay [3] is TGFβ1 (R&D Systems). Put plainly: cell-based or functional assay.
The target in assay [4] is T3, TGFβ3 (R&D Systems) (Homo sapiens (Human), UniProt P10600 301-412, Active TGFβ3 is a disulfide-linked homodimer of this chain; one copy is given.).
T3 sequence: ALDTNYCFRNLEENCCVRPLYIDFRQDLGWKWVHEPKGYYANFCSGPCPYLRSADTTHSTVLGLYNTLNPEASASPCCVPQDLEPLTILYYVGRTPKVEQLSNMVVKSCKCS
Put plainly: cell-based or functional assay.

Assay [5] addresses T1, canine TGFβ2. Put plainly: SPR.
In assay [6] the target is T2, canine TGFβ3. Put plainly: SPR.
Assay [7] deals with T4, TGFβ1 (R&D Systems).
T4 construct: also called TGFB1
Put plainly: SPR full titration.

For the next assay, the target named is T5, TGFβ2 (R&D Systems).
T5 construct: also called TGFB2
T5 sequence (P61812 303-414, species assumed, looked up): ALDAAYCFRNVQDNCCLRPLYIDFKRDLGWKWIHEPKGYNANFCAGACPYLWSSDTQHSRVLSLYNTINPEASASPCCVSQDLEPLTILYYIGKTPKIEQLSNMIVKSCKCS
The assay can be described thus: SPR full titration.

The target in assay [8] is T3, TGFβ3 (R&D Systems). Put plainly: SPR full titration.
Assay [9] has as its target T3, TGFβ3 (R&D Systems). The assay can be described thus: SPR.
In assay [10] the target is T4, TGFβ1 (R&D Systems). The assay can be described thus: cell-based or functional assay. This is another data set of the same source.
For assay [11], the target named is T4, TGFβ1 (R&D Systems). The assay can be described thus: cell-based or functional assay. This is another data set of the same source.
The target in assay [12] is T3, TGFβ3 (R&D Systems). Put plainly: cell-based or functional assay. The source holds these as a separate data set.

Read-outs that look alike come from different tables or passages of the source.

T4 sequence (P01137 279-390): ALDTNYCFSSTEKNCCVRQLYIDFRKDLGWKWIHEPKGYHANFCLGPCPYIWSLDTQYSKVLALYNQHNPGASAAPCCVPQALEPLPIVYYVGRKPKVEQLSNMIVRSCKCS
Sequence of canine TGFβ1 (P54831 279-390 limits assumed): as the sequence (P01137 279-390) above

B1: Can04H09 VH3/VL3 (antibody, V domains shown)
VH: EVQLVQSAAEVKKPGASVKVSCKTSGYTFTSSWMNWVQQAPGAGLDWMGQIYPGDGDTNYNGKFKGRVTLTADTSTSTAYMELSSLRAEDTAVYYCARHYDGSTDYWGQGTLVTVSS
VL: EIVMTQSPASLSLSQEEKVTITCRASENIYSNLAWYQQKPGQAPKLLIYAATNLADGVPSRFSGSGSGTDFSFTISSLEPEDVAVYYCQHFWGTPYTFGQGTK
What is called Kd is the free concentration of one partner at which half of the binding sites on the other are occupied at equilibrium, for simple one-to-one binding. A high value points to weaker binding. Regarding B1, the values for the dissociation constant (Kd) in the assay with canine TGFβ1, in the assay with canine TGFβ2 [1] and with canine TGFβ3 [2] were 2.79 nM, 48.8 nM and 9.08 nM, respectively. Moreover, the figures for the “CMVIC pSmad-3, IC50” value with TGFβ1 (R&D Systems) [3] and with TGFβ3 (R&D Systems) [4] were 1.18 nM and 72.8 nM, respectively.

B2: Can04H09 VH3/VL1 (antibody, V domains shown)
VH: EVQLVQSAAEVKKPGASVKVSCKTSGYTFTSSWMNWVQQAPGAGLDWMGQIYPGDGDTNYNGKFKGRVTLTADTSTSTAYMELSSLRAEDTAVYYCARHYDGSTDYWGQGTLVTVSS
VL: DIVMTQNPLSLSVSPGETASISCRASENIYSNLAWFRQKPGQSPQRLIYAATNLADGVPDRFSGSGSGTDFTLRISRVEADDTGVYYCQHFWGTPYTFGQGTK
B2: the binding result with canine TGFβ2 [5] and in the assay with canine TGFβ3 [6] was “no binding” in each case. In the assay with canine TGFβ1, this molecule came in with a Kd of 3980 nM.

B3: Can04H09 VH2/VL1 (antibody, V domains shown)
VH: EVQLVQSAAEVKKPGASVKVSCKTSGYSFTSSWMNWVQQAPGKGLDWMGQIYPGDGDTNYNGKFKGRVTLTADKSTSTAYMELSSLRSEDAAVYYCARHYDGSTDYWGQGTLVTVSS
VL: DIVMTQNPLSLSVSPGETASISCRASENIYSNLAWFRQKPGQSPQRLIYAATNLADGVPDRFSGSGSGTDFTLRISRVEADDTGVYYCQHFWGTPYTFGQGTK
Turning to B3, the binding result with canine TGFβ2 [5] and with canine TGFβ3 [6] was “no binding” throughout. In addition, binding in the assay with canine TGFβ1 was characterised by a dissociation constant (Kd) of 2190 nM.

B4: Can04H09 VH1/VL1 (antibody, V domains shown)
VH: EVQLVQSGAEVKKPGASVKVSCKTSGYTFISSWMNWVRQAPGAGLDWMGQIYPGDGDTNYNGKFKGRVTLTADTSTSTAYMELSSLRAGDIAVYYCARHYDGSTDYWGQGTLVTVSS
VL: DIVMTQNPLSLSVSPGETASISCRASENIYSNLAWFRQKPGQSPQRLIYAATNLADGVPDRFSGSGSGTDFTLRISRVEADDTGVYYCQHFWGTPYTFGQGTK
For B4, the binding result with canine TGFβ2 [5] and with canine TGFβ3 [6] was “no binding” in each case. This molecule also gave a Kd with canine TGFβ1 of 284 nM.

B5: H1chimK (antibody)
heavy: EVQLVQSGAEVKKPGASVKVSCKTSGYTFITYWMNWVRQAPGAGLDWMGQIFPASGSTNYNEMFEGRVTLTADTSTSTAYMELSSLRAGDIAVYYCARGDGNYALDAMDYWGQGTLVTASTTAPSVFPLAPSCGSTSGSTVALACLVSGYFPEPVTVSWNSGSLTSGVHTFPSVLQSSGLYSLSSMVTVPSSRWPSETFTCNVAHPASKTKVDKPVPKRENGRVPRPPDCPKCPAPEAAGAPSVFIFPPKPKDTLLIARTPEVTCVVVDLDPEDPEVQISWFVDGKQMQTAKTQPREEQFNGTYRVVSVLPIGHQDWLKGKQFTCKVNNKALPSPIERTISKARGQAHQPSVYVLPPSREELSKNTVSLTCLIKDFFPPDIDVEWQSNGQQEPESKYRTTPPQLDEDGSYFLYSKLSVDKSRWQRGDTFICAVMHEALHNHYTQESLSHSPGK
light: DIVLTQTPASLAVSLGQRATISCRASESVDSYGNSFMHWYQQKSGQPPKLLIYLASNLESGVPARFSGSGSRTDFTLTIDPVEADDAATYYCQQNNEDPLTFGAGTKRNDAQPAVYLFQPSPDQLHTGSASVVCLLNSFYPKDINVKWKVDGVIQDTGIQESVTEQDKDSTYSLSSTLTMSSTEYLSHELYSCEITHKSLPSTLIKSFQRSEC
notes: also called canHcLb-VH1/chiHcLb-VL
With B5, the results for the equilibrium dissociation constant (Kd) with TGFβ1 (R&D Systems) [7], in the assay with TGFβ2 (R&D Systems) and with TGFβ3 (R&D Systems) [8] were 6.52 nM, 0.683 nM and 1.03 nM, respectively.

B6: H2chimK (antibody)
heavy: EVQLVQSAAEVKKPGASVKVSCKTSGYSFTTYWMNWVQQAPGKGLDWMGQIFPASGSTNYNEMFEGRVTLTVDTSTSTAYMELSSLRAEDAAVYYCARGDGNYALDAMDYWGQGTLVTASTTAPSVFPLAPSCGSTSGSTVALACLVSGYFPEPVTVSWNSGSLTSGVHTFPSVLQSSGLYSLSSMVTVPSSRWPSETFTCNVAHPASKTKVDKPVPKRENGRVPRPPDCPKCPAPEAAGAPSVFIFPPKPKDTLLIARTPEVTCVVVDLDPEDPEVQISWFVDGKQMQTAKTQPREEQFNGTYRVVSVLPIGHQDWLKGKQFTCKVNNKALPSPIERTISKARGQAHQPSVYVLPPSREELSKNTVSLTCLIKDFFPPDIDVEWQSNGQQEPESKYRTTPPQLDEDGSYFLYSKLSVDKSRWQRGDTFICAVMHEALHNHYTQESLSHSPGK
light: DIVLTQTPASLAVSLGQRATISCRASESVDSYGNSFMHWYQQKSGQPPKLLIYLASNLESGVPARFSGSGSRTDFTLTIDPVEADDAATYYCQQNNEDPLTFGAGTKRNDAQPAVYLFQPSPDQLHTGSASVVCLLNSFYPKDINVKWKVDGVIQDTGIQESVTEQDKDSTYSLSSTLTMSSTEYLSHELYSCEITHKSLPSTLIKSFQRSEC
notes: also called canHcLb-VH2/chiHcLb-VL
As for B6, the Kd turned out to be 16.3 nM in the assay with TGFβ1 (R&D Systems) [7], 6.62 nM in the assay with TGFβ2 (R&D Systems) and 2.26 nM in the assay with TGFβ3 (R&D Systems) [8].

B7: fel-TGFβ1-Spec (antibody)
heavy: DVQLVESGGDLVKPGGSLRLTCVASGFTFSSYGMHWVRQAPGKELEWVAVISYDGSIKYYADAVKGRFTISRDNAKNTLYLQMNSLKTEDTATYYCARTGEYSGYDTDPQYSWGQGTTVTVSSASTTAPSVFPLAPSCGTTSGATVALACLVLGYFPEPVTVSWNSGALTSGVHTFPAVLQASGLYSLSSMVTVPSSRWLSDTFTCNVAHPPSNTKVDKTVRKTDHPPGPKPCDCPKCPPPEAAGAPSIFIFPPKPKDTLSISRTPEVTCLVVDLGPDDSDVQITWFVDNTQVYTAKTSPREEQFNSTYRVVSVLPILHQDWLKGKEFKCKVNSKSLPSPIERTISKAKGQPHEPQVYVLPPAQEELSRNKVSVTCLIKSFHPPDIAVEWEITGQPEPENNYRTTPPQLDSDGTYFVYSKLSVDRSHWQRGNTYTCSVSHEALHSHHTQKSLTQSPGK
light: EIQMTQSPSSLSASPGDRVTITCRASQGIGDDLGWYQQKPGKVPKLLIYGTSTLQSGVPSRFSGSGSGTDFTLTISSLEPEDAATYYCLQDSNYPLTFGGGTKRSDAQPSVFLFQPSLDELHTGSASIVCILNDFYPKEVNVKWKVDGVVQNKGIQESTTEQNSKDSTYSLSSTLTMSSTEYQSHEKFSCEVTHKSLASTLVKSFQRSECQRE
notes: also called FelSL501-VH3-9/FelSL501-VL1-1
Regarding B7, in the assay with TGFβ3 (R&D Systems) [9], the binding result is on record as “no binding”. In addition, in the assay with TGFβ1 (R&D Systems) [10], the “CMVIC pSmad-3, IC50” value came out at 9.03 nM.

B8: fel04H09-17 (antibody, V domains shown)
VH: QVLLVQSGAEVRRPGASVKIFCKASGYSFTSSWMNWLRQAPAQGFEWMGQIYPGDGDTNYNGKFKGRLTLTADTSTDTAYMELSSLRSADTAVYYCARHYDGSTDYWGHGTIVTVSS
VL: AITMTQSPGSLAGSPGQQVTMNCRASENIYSNLAWYQQKPGQHPKLLIYAATNLADGVPDRFSGSGSGTDFTLTISNLQAEDVASYYCQHFWGTPYTFGGGT
As to B8, the results for the “CMVIC pSmad-3, IC50” value with TGFβ1 (R&D Systems) [11] and with TGFβ3 (R&D Systems) [12] were 0.89 nM and 39.9 nM, respectively. In addition, the “CRFK pSmad-3, IC50” value with TGFβ1 (R&D Systems) [11] came out at 0.73 nM; with TGFβ3 (R&D Systems) [12], 370 nM.

B9: fel04H09-24 (antibody, V domains shown)
VH: QVLLVQSGAEVRKPGASVKIFCKASGYSFTSSWMNWLRQAPEQGLEWMGQIYPGDGDTNYNGKFKGRLTLTADTSTNTAYMELSSLRSADTAMYYCARHYDGSTDYWGQGALVTVSS
VL: DIVMTQTPLSLPVTPGEPASISCRASENIYSNLAWYLQKPGQSPRLLIYAATNLADGVPSRFSGSGSGTDFTLRISSVEADDVGVYYCQHFWGTPYTFGQGT
B9: the “CRFK pSmad-3, IC50” value is 0.5 nM in the assay with TGFβ1 (R&D Systems) [11] and 30.1 nM with TGFβ3 (R&D Systems) [12].
